# Where two headings read alike, the source gives them in different places.
# B1: MAT II β subunit: recombinant regulatory β subunit of human methionine adenosyltransferase II, 334 amino acids, expressed in E. coli or Cos-1 cells (protein, UniProt Q9NZL9 2-334, looked up)
# Methionine …: VGREKELSIHFVPGSCRLVEEEVNIPNRRVLVTGATGLLGRAVHKEFQQNNWHAVGCGFRRARPKFEQVNLLDSNAVHHIIHDFQPHVIVHCAAERRPDVVENQPDAASQLNVDASGNLAKEAAAVGAFLIYISSDYVFDGTNPPYREEDIPAPLNLYGKTKLDGEKAVLENNLGAAVLRIPILYGEVEKLEESAVTVMFDKVQFSNKSANMDHWQQRFPTHVKDVATVCRQLAEKRMLDPSIKGTFHWSGNEQMTKYEMACAIADAFNLPSSHLRPITDSPVLGAQRPRNAQLDCSKLETLGIGQRTPFRIGIKESLWPFLIDKRWRQTVFH
# Columns and labels:
# MAT II = assay: MAT activity and kinetics in extracts of transfected Cos-1 cells; format: biochemical, African green monkey
# Protocol: Transfection of Cos-1 cells with pTargeT™/MAT2A or pTargeT™/MAT2B was done using the cationic lipid reagent, Transfast™ (Promega). Preliminary experiments were carried out to optimize the transfection conditions. Typically, 1.5×10^6 cells were plated in 100 mm dish one day prior to transfection. For each plate, […] of vector DNA was applied in the ratio of 1:1 to Transfast™ in a protein-free medium for 2 h. For cells co-transfected with both α2 and β vectors, […] DNA from each was used. For each experiment, one untransfected plate served as a normal control, and a second plate was transfected with the pTargeT™ vector only (mock-transfected cells). After 48 h, cells were harvested by trypsinization with a solution containing 0.05% trypsin and 0.53 mM EDTA in Hank's balanced salt solution (HBSS, from Cellgro). Trypsinization was stopped by the addition of media supplemented with 10% FCS, cells were pelleted, washed three times in 1 ml HBSS, counted, then resuspended in 1× extraction buffer with protease inhibitors (50 mM Tris, pH 7.4, 100 mM NaCl, 5 mM MgCl2, 4 mM dithiothreitol, 0.1 IU/ml aprotinin, 0.5 mM PMSF and […] soybean trypsin inhibitor). Cells were lysed by three cycles of quick freezing and thawing, and the lysate was clarified by centrifugation at 15,000×g for 10 min at 4° C. If not immediately used; cell extracts were stored at −80° C. Protein assays were performed using the bicinchoninic acid reagent (Sigma) following the manufacturer instructions.
# MAT activity in cell extracts was assayed as previously described (Kotb, M., and Kredich, N. M. (1985) J. Biol. Chem. 260, 3923-30). […] The concentration of L-Met was varied between […] using ^14C-L-Met (57.9 mCi/mmol) to a concentration of up to […], and supplementary with cold L-Met for higher concentrations.
# [1] = MAT assay of recombinant MAT II β subunit protein alone; format: biochemical
# Protocol: MAT activity was assayed as previously described (22,29,31). The assay contained 5-120 μM L-methionine (L-Met), 5 mM ATP in 50 mM TES buffer, pH 7.4,50 mM KCl, 15 mM MgCl2, 0.3 mM EDTA, and 4 mM DTT. The L-Met concentration was varied as indicated in the kinetic analysis. One unit (U) of MAT activity is defined as the amount of enzyme that catalyzes the formation of 1 nmol of AdoMet in 1 hour.
# E. coli MAT α protein = E. coli MAT α protein (Escherichia coli, UniProt P0A817); conditions: Ni-NTA agarose, native conditions
# Chain of E. coli MAT α protein (Q9NZL9 whole entry): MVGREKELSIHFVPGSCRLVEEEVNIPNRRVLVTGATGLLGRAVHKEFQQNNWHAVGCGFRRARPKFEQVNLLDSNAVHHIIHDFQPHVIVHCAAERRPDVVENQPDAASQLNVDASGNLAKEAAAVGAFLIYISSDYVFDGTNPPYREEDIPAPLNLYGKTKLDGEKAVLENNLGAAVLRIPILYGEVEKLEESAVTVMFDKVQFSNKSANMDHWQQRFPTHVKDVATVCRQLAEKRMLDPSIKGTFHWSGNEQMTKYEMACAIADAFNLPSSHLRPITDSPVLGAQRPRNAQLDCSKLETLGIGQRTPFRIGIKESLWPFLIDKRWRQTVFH
# Chain of E. coli MAT α protein (P0A817 2-384): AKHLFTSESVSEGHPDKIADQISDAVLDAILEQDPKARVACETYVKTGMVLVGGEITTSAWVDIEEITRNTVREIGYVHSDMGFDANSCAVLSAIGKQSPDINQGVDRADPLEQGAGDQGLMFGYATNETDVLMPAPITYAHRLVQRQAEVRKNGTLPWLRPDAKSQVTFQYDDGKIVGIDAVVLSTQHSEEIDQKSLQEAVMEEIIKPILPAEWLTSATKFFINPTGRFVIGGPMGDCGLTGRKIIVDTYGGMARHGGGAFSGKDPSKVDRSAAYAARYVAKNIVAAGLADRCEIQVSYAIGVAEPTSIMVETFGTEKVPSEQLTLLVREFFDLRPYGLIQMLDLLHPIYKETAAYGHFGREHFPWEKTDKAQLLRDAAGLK
# Protocol: The MAT II β expression clone, Clone 5, was inoculated into one liter of LB broth containing 25 μg/ml kanamycin and 100 μg/ml ampicillin, then incubated with shaking at 37° C. until an OD600 of 0.5-0.7 was reached. IPTG (Sigma) was added to a final concentration of 1 mM, and the culture was allowed to incubate for an additional 4 hours under the same conditions. […] The first, involved purification of the His-tagged protein under denaturing conditions of 8M urea, and the second involved separation of SDS-PAGE and elution of the β subunit protein from the gel.
molecule,measurement,setting,value
B1,effect on the Km for L-Met of the endogenous MAT II,MAT II; expression in Cos-1 cells,no effect
same,effect on MAT (specific) activity,"MAT II; expression in Cos-1 cells, result in words",increase
same,Km,"MAT II; extracts of Cos-1 cells transfected with β or co-transfected with α2 and β, single kinetic form, read-out: Km for L-Met",20 µM
same,increase in MAT activity,MAT II; transfected Cos-1 cell extracts compared to untransfected (or mock-transfected) cells,~2 fold
same,MAT catalytic activity,[1],no MAT catalytic activity
same,association / co-purification with E. coli MAT α,E. coli MAT α protein; listed as recombinant MAT II β subunit protein,associated spontaneously
same,association / co-purification with E. coli MAT α,E. coli MAT α protein; listed as recombinant human MAT II β subunit protein,co-purifying

# Reference: patent publication US20040259198A1, “Purified and isolated mat II beta subunit nucleic acids and polypeptides and therapeutic and screening methods using same” (priority 1999, published 2004)
